Sequences and labels used below:
B1: TPR t1 (parent)
chain: GACCAAUCUGCCCUCAGAGCUCGAGAACAUCUUCGGAUGCAGAGGAGGCAGGCUUCGGUGGCGCGAUAGCGCCAACGUCCUCAACCUCCAAUGCAUCCCACCACAUGAUGAUGCCUGAAGAGCCUUGGUUUUUUG

Variants of B1 are the subject of this data set. The data set can be described thus: polymerase ribozyme fitness, log enrichment relative to wild type (log ratio); higher = more active; in vitro selection for triplet polymerase activity. The procedure, abridged:
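Mutant libraries for each subunit of a heterodimeric triplet polymerase ribozyme were made by PCR and then transcribed. Each library underwent one round of in vitro selection in triplicate: annealing with a biotinylated primer, the partner subunit and triplets, frozen incubation at −7 °C, gel excision of extended constructs, streptavidin-bead capture and RT-PCR. Input and output libraries were Illumina-sequenced, and only genotypes with ≥10 input reads and ≥1 read per output were kept. Fitness is the logarithm, base 2, of genotype enrichment over wild-type enrichment, computed from inverse-variance-weighted replicate averages.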
On to A5G C8U U38G U106A C114A, for which the “polymerase ribozyme fitness (log ratio)” value is -1.52.

In the case of A5C U112C, the “polymerase ribozyme fitness (log ratio)” value is 0.655.

Consider A5C U112A, for which the “polymerase ribozyme fitness (log ratio)” value stood at 1.05.

Turning to A5C U9A C40U G63U G135U, the “polymerase ribozyme fitness (log ratio)” value is -2.96.

For A5G G45A C49A G69U G93A U130G U131A, the “polymerase ribozyme fitness (log ratio)” value was -2.39.

In the case of A5G G42U C56G A91C C115G, the “polymerase ribozyme fitness (log ratio)” value is -3.59.

Take A5C U9C C13U: the “polymerase ribozyme fitness (log ratio)” value was -0.074.

Consider A5G A74G A118C, for which the “polymerase ribozyme fitness (log ratio)” value is -3.85.

Turning to A5G G10U G42U, the “polymerase ribozyme fitness (log ratio)” value was -1.51.

For A5G C8G G52C C79U, the “polymerase ribozyme fitness (log ratio)” value was 0.0143.

Regarding A5G G36U G63C A111C A119C, the “polymerase ribozyme fitness (log ratio)” value is -4.21.

As for A5U A18C C124U, the “polymerase ribozyme fitness (log ratio)” value is -0.683.

As to A5C U9A C13U A74C G110C C123A, the “polymerase ribozyme fitness (log ratio)” value is -5.77.

Regarding A5G A37C G58U G60U U87A, the “polymerase ribozyme fitness (log ratio)” value is -1.82.

As for A5U A6U U9G C28A C34A G60A A121C, the “polymerase ribozyme fitness (log ratio)” value is -6.95.

As to A5G C79U, the “polymerase ribozyme fitness (log ratio)” value was determined as 0.091.

Take A5G C49A C115U U132A: the “polymerase ribozyme fitness (log ratio)” value is -0.466.

As to A5G C20U C53A G58A C99U, the “polymerase ribozyme fitness (log ratio)” value was -4.64.

For A5U A18C G113A A118U U131A, the “polymerase ribozyme fitness (log ratio)” value was -4.6.

In the case of A5G A26C C72U U87A G120U U130A, the “polymerase ribozyme fitness (log ratio)” value was -3.99.

Turning to A5C U109A, the “polymerase ribozyme fitness (log ratio)” value is -4.8.

With A5U A41U C64U G120C, the “polymerase ribozyme fitness (log ratio)” value was -1.19.

In the case of A5U A95C, the “polymerase ribozyme fitness (log ratio)” value is -1.24.

Regarding A5G C49G, the “polymerase ribozyme fitness (log ratio)” value is -1.85.

A5G C13G A18C G35U A75G C79U A119G C123G U130C: the “polymerase ribozyme fitness (log ratio)” value is -7.55.

As for A5C U87G U96G C104U A121C, the “polymerase ribozyme fitness (log ratio)” value worked out at 0.96.

For the variant A5G U38G C114A, the “polymerase ribozyme fitness (log ratio)” value is -2.6.

Turning to A5G C13U A43U G71A C124U, the “polymerase ribozyme fitness (log ratio)” value is -1.48.

With A5C U54C C82G C104A U131C, the “polymerase ribozyme fitness (log ratio)” value is -1.29.

A5U A46U C73A A90U C123A: the “polymerase ribozyme fitness (log ratio)” value is -1.41.

For A5U A6G C53U G117A U129A, the “polymerase ribozyme fitness (log ratio)” value is -2.59.

Turning to A5G C53A U59A G77U C94U, the “polymerase ribozyme fitness (log ratio)” value is -0.908.

On to A5G C8U G61U C94U, for which the “polymerase ribozyme fitness (log ratio)” value was found to be 0.251.

Regarding A5U A90G C123U, the “polymerase ribozyme fitness (log ratio)” value worked out at 0.65.

For A5G G57U U78G U106A G110A, the “polymerase ribozyme fitness (log ratio)” value is -1.97.

As to A5G G10A C15A G23C U32G G61C A90C, the “polymerase ribozyme fitness (log ratio)” value was -6.73.

With A5G C12U G39U, the “polymerase ribozyme fitness (log ratio)” value is -0.29.

As for A5G A6C, the “polymerase ribozyme fitness (log ratio)” value is -0.0257.

In the case of A5G C72U, the “polymerase ribozyme fitness (log ratio)” value was -0.625.

Consider A5G C72G, for which the “polymerase ribozyme fitness (log ratio)” value is -0.844.

Turning to A5C U32C C53U G57A C85A, the “polymerase ribozyme fitness (log ratio)” value was -3.78.

For A5G G61A C94A, the “polymerase ribozyme fitness (log ratio)” value is -0.707.

With A5G G48C, the “polymerase ribozyme fitness (log ratio)” value is -1.69.

Consider A5G G71U A111C G127A, for which the “polymerase ribozyme fitness (log ratio)” value is -1.59.

In the case of A5G C82G C97A C124A U125G, the “polymerase ribozyme fitness (log ratio)” value was -4.89.

In the case of A5G A121C, the “polymerase ribozyme fitness (log ratio)” value worked out at 0.258.

Regarding A5G C85G, the “polymerase ribozyme fitness (log ratio)” value was -2.35.

A5G G42U C80A: the “polymerase ribozyme fitness (log ratio)” value was -5.11.

With A5G G113A, the “polymerase ribozyme fitness (log ratio)” value is -0.636.

Take A5G C82G: the “polymerase ribozyme fitness (log ratio)” value is -0.685.

Turning to A5C U9G C80U A90U U92A, the “polymerase ribozyme fitness (log ratio)” value was -2.94.

As for A5G G60C G69A, the “polymerase ribozyme fitness (log ratio)” value was -5.79.

As to A5G A18G C79A U81C C89U G93U G120C C124U, the “polymerase ribozyme fitness (log ratio)” value is -6.53.

As for A5C U14C G60U A100C G135U, the “polymerase ribozyme fitness (log ratio)” value was -4.82.

With A5G G10A C72U A91U, the “polymerase ribozyme fitness (log ratio)” value is -2.06.

Regarding A5G C13G G51A U112C, the “polymerase ribozyme fitness (log ratio)” value is -1.39.

For the variant A5C G120A, the “polymerase ribozyme fitness (log ratio)” value is 0.639.

For the variant A5C G120C, the “polymerase ribozyme fitness (log ratio)” value was found to be 0.663.

On to A5G U106A, for which the “polymerase ribozyme fitness (log ratio)” value was 0.687.

Regarding A5C U55C G120U C123G U131A, the “polymerase ribozyme fitness (log ratio)” value turned out to be 0.062.

Take A5U A6C C11U: the “polymerase ribozyme fitness (log ratio)” value was -0.244.

For the variant A5C U87C C88A G120U, the “polymerase ribozyme fitness (log ratio)” value was -0.6.

Take A5G A46U C56U C73G: the “polymerase ribozyme fitness (log ratio)” value was -2.61.

Turning to A5G C13U A46U C56A, the “polymerase ribozyme fitness (log ratio)” value was -0.813.

As to A5C U9C G61C, the “polymerase ribozyme fitness (log ratio)” value is -1.78.

In the case of A5G A111G C123A G128U, the “polymerase ribozyme fitness (log ratio)” value was -2.99.

On to A5G C12A C72G U87A C115G U131C, for which the “polymerase ribozyme fitness (log ratio)” value is -3.53.

For A5C U125G, the “polymerase ribozyme fitness (log ratio)” value was -0.516.

Take A5U A41U C82G G120A U125G: the “polymerase ribozyme fitness (log ratio)” value was -2.77.

For A5G G36U G48A G61C G122U C123U, the “polymerase ribozyme fitness (log ratio)” value is -1.93.

A5G C80A: the “polymerase ribozyme fitness (log ratio)” value is -2.34.

As for A5U A91U, the “polymerase ribozyme fitness (log ratio)” value was -3.29.

In the case of A5G A18G G44C G48C U55C U59G G117U, the “polymerase ribozyme fitness (log ratio)” value is -5.35.

Regarding A5C U129A, the “polymerase ribozyme fitness (log ratio)” value was -0.548.

Consider A5G C13A C53U U59G, for which the “polymerase ribozyme fitness (log ratio)” value was -1.69.

Take A5G A43G G63A U112G: the “polymerase ribozyme fitness (log ratio)” value is -5.31.

Take A5U A27G G44U A118U: the “polymerase ribozyme fitness (log ratio)” value was -4.64.

With A5G U109G C123G U130C, the “polymerase ribozyme fitness (log ratio)” value was -4.03.

On to A5C U7C G57U C99U U112A, for which the “polymerase ribozyme fitness (log ratio)” value was -3.19.

For A5U A43G G48A C62U A103U G110U, the “polymerase ribozyme fitness (log ratio)” value is -6.17.

For A5G C11A C70A G71A A121C G122U G127A, the “polymerase ribozyme fitness (log ratio)” value is -3.67.

A5G G69C: the “polymerase ribozyme fitness (log ratio)” value is -1.4.

For the variant A5G G69A, the “polymerase ribozyme fitness (log ratio)” value was -2.1.

As for A5G G69U, the “polymerase ribozyme fitness (log ratio)” value was 0.484.

(Values after the RNAGym collection of RNA variant scans (doi:10.1073/pnas.2313332121).)
